What was measured:
[1] = target: T1, eukaryotic Initiation Factor 4E (eIF4E), wild type (mouse (endogenous in forebrain), UniProt P63073 1-217); assay: pull-down; cap-column pulldown: 500 ug forebrain lysate protein with 50 ul m7GDP agarose in buffer C (50 mM MOPS-KOH pH 7.4, 100 mM NaCl, 50 mM NaF, 0.5 mM EDTA, 0.5 mM EGTA, 0.1 mM GTP), 90 min at 4 C; eIF4E held by its ligand m7GDP; cap-bound fraction immunoblotted and quantified, normalised to input; conditions: partners not purified
T1 construct: also called WT; source: endogenous, WT mouse forebrain lysate

[2] = target: T2, eIF4E Ser209Ala (knock-in, 4Eki mice) (mouse (endogenous in forebrain), UniProt P63073 1-217, Ser209Ala); assay: as above; conditions: partners not purified
T2 construct: The mice are described in Gkogkas et al., 2014; also called Ser209Ala mutant; source: endogenous (knock-in allele), 4Eki mouse forebrain lysate

B1: eIF4G (natural protein, mouse (endogenous in forebrain), UniProt Q6NZJ6 1-1600, looked up)
chain: MNKAPQPTGPPPARSPGLPQPAFPPGQTAPVVFSTPQATQMNTPSQPRQGGFRSLQHFYPSRAQPPSSAASRVQSAAPARPGPAPHVYPAGSQVMMIPSQISYSASQGAYYIPGQGRSTYVVPTQQYPVQPGAPGFYPGASPTEFGTYAGAYYPAQGVQQFPASVAPAPVLMNQPPQIAPKRERKTIRIRDPNQGGKDITEEIMSGARTASTPTPPQTGGSLEPQPNGESPQVAVIIRPDDRSQGAAIGGRPGLPGPEHSPGTESQPSSPSPTPSPPPILEPGSESNLGVLSIPGDTMTTGMIPMSVEESTPISCETGEPYCLSPEPTLAEPILEVEVTLSKPIPESEFSSSPLQVSTALVPHKVETHEPNGVIPSEDLEPEVESSTEPAPPPLSPCASESLVPIAPTAQPEELLNGAPSPPAVDLSPVSEPEEQAKKVSSAALASILSPAPPVAPSDTSPAQEEEMEEDDDDEEGGEAESEKGGEDVPLDSTPVPAQLSQNLEVAAATQVAVSVPKRRRKIKELNKKEAVGDLLDAFKEVDPAVPEVENQPPTGSNPSPESEGSMVPTQPEETEETWDSKEDKIHNAENIQPGEQKYEYKSDQWKPLNLEEKKRYDREFLLGFQFIFASMQKPEGLPHITDVVLDKANKTPLRQLDPSRLPGINCGPDFTPSFANLGRPALSNRGPPRGGPGGELPRGPAGLGPRRSQQGPRKETRKIISSVIMTEDIKLNKAEKAWKPSSKRTAADKDRGEEDADGSKTQDLFRRVRSILNKLTPQMFQQLMKQVTQLAIDTEERLKGVIDLIFEKAISEPNFSVAYANMCRCLMALKVPTTEKPTVTVNFRKLLLNRCQKEFEKDKDDDEVFEKKQKEMDEAATAEERGRLKEELEEARDIARRRSLGNIKFIGELFKLKMLTEAIMHDCVVKLLKNHDEESLECLCRLLTTIGKDLDFAKAKPRMDQYFNQMEKIIKEKKTSSRIRFMLQDVLDLRQSNWVPRRGDQGPKTIDQIHKEAEMEEHREHIKVQQLMAKGSDKRRGGPPGPPINRGLPLVDDGGWNTVPISKGSRPIDTSRLTKITKPGSIDSNNQLFAPGGRLSWGKGSSGGSGAKPSDTASEATRPATLNRFSALQQTLPAENTDNRRVVQRSSLSRERGEKAGDRGDRLERSERGGDRGDRLDRARTPATKRSFSKEVEERSRERPSQPEGLRKAASLTEDRGRDPVKREATLPPVSPPKAALSVDEVEKKSKAIIEEYLHLNDMKEAVQCVQELASPSLLFIFVRLGIESTLERSTIAREHMGRLLHQLLCAGHLSTAQYYQGLYETLELAEDMEIDIPHVWLYLAELITPILQEDGVPMGELFREITKPLRPMGKATSLLLEILGLLCKSMGPKKVGMLWREAGLSWREFLAEGQDVGSFVAEKKVEYTLGEESEAPGQRTLAFEELRRQLEKLLKDGGSNQRVFDWIDANLNEQQIASNTLVRALMTTVCYSAIIFETPLRVDVQVLKVRARLLQKYLCDEQKELQALYALQALVVTLEQPANLLRMFFDALYDEDVVKEDAFYSWESSKDPAEQQGKGVALKSVTAFFNWLREAEDEESDHN
notes: eIF4G, mouse, endogenous in forebrain; detected with an antibody against eIF4G1 (Cell Signaling Technology 2498); also called eIF4G1; scaffolding protein of eIF4F; source: endogenous, mouse forebrain lysate (WT or 4Eki)
For B1, the “cap-bound protein (arbitrary units, normalised to input)” value [1] was 1 arbitrary units and the “cap-bound protein (arbitrary units, normalised to input)” value [2] was 0.83 arbitrary units.

B2: Gapdh (natural protein)
chain: not shown
notes: Gapdh, mouse, endogenous in forebrain; also called GAIT complex protein; source: endogenous, mouse forebrain lysate (WT or 4Eki)
B2 was tested, and the “cap-bound protein (arbitrary units, normalised to input)” value [2] was 0.775 arbitrary units.

B3: Eprs (natural protein, mouse (endogenous in forebrain), UniProt Q8CGC7 1-1512, looked up)
chain: MAALCLTVNAGNPPLEALLAVEHVKGDVSISVEEGKENLLRVSETVAFTDVNSILRYLARIATTSGLYGTNLMEHTEIDHWLEFSATKLSSCDRLTSAINELNHCLSLRTYLVGNSLTLADLCVWATLKGSAAWQEHLKQNKTLVHVKRWFGFLEAQQAFRSVGTKWDVSGNRATVAPDKKQDVGKFVELPGAEMGKVTVRFPPEASGYLHIGHAKAALLNQHYQVNFKGKLIMRFDDTNPEKEKEDFEKVILEDVAMLHIKPDQFTYTSDHFETIMKYAEKLIQEGKAYVDDTPAEQMKAEREQRTESKHRKNSVEKNLQMWEEMKKGSQFGQSCCLRAKIDMSSNNGCMRDPTLYRCKIQPHPRTGNKYNVYPTYDFACPIVDSIEGVTHALRTTEYHDRDEQFYWIIEALGIRKPYIWEYSRLNLNNTVLSKRKLTWFVNEGLVDGWDDPRFPTVRGVLRRGMTVEGLKQFIAAQGSSRSVVNMEWDKIWAFNKKVIDPVAPRYVALLKKEVVPVNVLDAQEEMKEVARHPKNPDVGLKPVWYSPKVFIEGADAETFSEGEMVTFINWGNINITKIHKNADGKITSLDAKLNLENKDYKKTTKITWLAESTHALSIPAVCVTYEHLITKPVLGKDEDFKQYINKDSKHEELMLGDPCLKDLKKGDIIQLQRRGFFICDQPYEPVSPYSCREAPCILIYIPDGHTKEMPTSGSKEKTKVEISKKETSSAPKERPAPAVSSTCATAEDSSVLYSRVAVQGDVVRELKAKKAPKEDIDAAVKQLLTLKAEYKEKTGQEYKPGNPSAAAVQTVSTKSSSNTVESTSLYNKVAAQGEVVRKLKAEKAPKAKVTEAVECLLSLKAEYKEKTGKDYVPGQPPASQNSHSNPVSNAQPAGAEKPEAKVLFDRVACQGEVVRKLKAEKASKDQVDSAVQELLQLKAQYKSLTGIEYKPVSATGAEDKDKKKKEKENKSEKQNKPQKQNDGQGKDSSKSQGSGLSSGGAGEGQGPKKQTRLGLEAKKEENLAEWYSQVITKSEMIEYYDVSGCYILRPWSYSIWESIKDFFDAEIKKLGVENCYFPIFVSQAALEKEKNHIEDFAPEVAWVTRSGKTELAEPIAIRPTSETVMYPAYAKWVQSHRDLPVRLNQWCNVVRWEFKHPQPFLRTREFLWQEGHSAFATFEEAADEVLQILELYARVYEELLAIPVVRGRKTEKEKFAGGDYTTTIEAFISASGRAIQGATSHHLGQNFSKMCEIVFEDPKTPGEKQFAYQCSWGLTTRTIGVMVMVHGDNMGLVLPPRVASVQVVVIPCGITNALSEEDREALMAKCNEYRRRLLGANIRVRVDLRDNYSPGWKFNHWELKGVPVRLEVGPRDMKSCQFVAVRRDTGEKLTIAEKEAEAKLEKVLEDIQLNLFTRASEDLKTHMVVSNTLEDFQKVLDAGKVAQIPFCGEIDCEDWIKKMTARDQDVEPGAPSMGAKSLCIPFNPLCELQPGAMCVCGKNPAKFYTLFGRSY
notes: Eprs (glutamyl-prolyl-tRNA synthetase), mouse, endogenous in forebrain; also called GAIT complex protein; source: endogenous, mouse forebrain lysate (WT or 4Eki)
For B3, the “cap-bound protein (arbitrary units, normalised to input)” value [1] was 1 arbitrary units.
